Paper PMC7515722, “Participation of RecJ in the base excision repair pathway of Deinococcus radiodurans”

B1: KY10, 5'-P-(dA)20 (ssDNA)
DNA: AAAAAAAAAAAAAAAAAAAA
modifications: 5'-monophosphate
B2: KY08, (dA)20 (ssDNA)
DNA: AAAAAAAAAAAAAAAAAAAA
B3: KY11, 5'-P-dSpacer-(dA)20 (ssDNA)
DNA: AAAAAAAAAAAAAAAAAAAA
modifications: 5'-P-dSpacer (tetrahydrofuran abasic, 5'-dRP mimic) added before A1

Biological target: T1, drRecJ WT (Deinococcus radiodurans, UniProt D0EM60 1-705)
T1 sequence: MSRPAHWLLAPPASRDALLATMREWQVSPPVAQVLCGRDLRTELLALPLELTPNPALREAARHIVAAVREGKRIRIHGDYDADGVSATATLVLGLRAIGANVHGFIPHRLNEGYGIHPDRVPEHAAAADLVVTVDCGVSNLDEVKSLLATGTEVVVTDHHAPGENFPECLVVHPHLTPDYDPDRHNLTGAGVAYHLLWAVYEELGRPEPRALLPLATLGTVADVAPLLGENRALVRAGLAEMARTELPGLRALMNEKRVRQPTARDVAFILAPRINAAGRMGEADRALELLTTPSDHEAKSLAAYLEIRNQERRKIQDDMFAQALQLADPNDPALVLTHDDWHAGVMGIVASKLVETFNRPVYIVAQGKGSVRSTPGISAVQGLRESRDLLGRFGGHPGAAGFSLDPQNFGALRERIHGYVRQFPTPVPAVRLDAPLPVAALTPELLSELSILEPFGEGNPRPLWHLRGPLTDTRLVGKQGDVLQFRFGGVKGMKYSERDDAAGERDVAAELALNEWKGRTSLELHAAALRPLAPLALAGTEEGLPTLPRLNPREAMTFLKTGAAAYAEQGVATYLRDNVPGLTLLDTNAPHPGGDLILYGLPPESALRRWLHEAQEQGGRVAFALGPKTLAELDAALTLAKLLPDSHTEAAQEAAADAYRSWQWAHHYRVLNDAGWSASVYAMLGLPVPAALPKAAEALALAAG
Assay: EMSA; no Mn2+ added; EMSA: 10 nM 3'-6-FAM ssDNA, 50 mM Tris-HCl pH 7.5, 150 mM KCl, 0.1 mg/ml BSA, 1 mM DTT, 5% glycerol, 20 min at 30 C; 8% native PAGE in TBE; Hill fit
Conditions: protein: recombinant; label: 3'-6-FAM

| Binder | Kd [nM] |
| --- | --- |
| B1 | 33.9 ± 2.83 |
| B2 | 54.9 ± 5.18 |
| B3 | 28.4 ± 3.1 |
